Assay results taken from US20220177580A1 (Amgen, published 2022).
Blank lines part the entries; values can stand above or below the binder they belong to.

Legend:
[1] = biological target: T1, huFcγRIIa-131H (His-tagged, soluble, captured for SPR) (human, UniProt P12318 34-217, limits assumed); assay: SPR, His-tagged FcγR captured by anti-His antibody, antibody injected; unenriched panitumumab; apparent KD
T1 construct: His-tagged human FcγR expressed in CHO cells, purified in house and captured by an anti-His antibody on a CM5 chip; also called FcγRIIa-H131; not shown: His tag
T1 sequence (looked up): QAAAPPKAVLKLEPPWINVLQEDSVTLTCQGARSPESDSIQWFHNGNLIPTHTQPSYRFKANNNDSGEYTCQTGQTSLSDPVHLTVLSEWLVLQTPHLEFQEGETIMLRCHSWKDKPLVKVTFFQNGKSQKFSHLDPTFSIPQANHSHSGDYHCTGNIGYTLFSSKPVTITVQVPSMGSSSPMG
Protocol: (§1) Surface plasmon resonance experiments were performed using the SPR T-200 instrument. His-tagged human FcγRs were expressed in CHO cells and purified in house mouse anti-his capture antibody was immobilized at approximately 5000 RU on a Series S Sensor Chip CM5 (GE Healthcare) using Instrument Buffer (0.005% P20 in PBS). FcγRs were diluted to 3.3˜10 nM in running buffer (0.005% P20, 0.1 mg/mL BSA in PBS) and injected at 10 μL/min for 1.5 min for the capture step. Panitumumab samples were diluted in running buffer (PBS+0.005% P20+0.1 mg/mL BSA) over a range of concentrations from 0.4 nM-20000 nM and injected over the captured FcγR with association and dissociation times of 3 minutes at 50 μL/min. The chip surface was regenerated by injecting 10 mM glycine, pH 1.7 at 30 μL/min for 30 s.

[2] = biological target: T2, human FcγRI (His-tagged, soluble, captured for SPR) (human, UniProt P12314 16-292, limits assumed); assay: SPR, His-tagged FcγR captured by anti-His antibody, antibody injected
T2 construct: His-tagged human FcγR expressed in CHO cells, purified in house and captured by an anti-His antibody on a CM5 chip; also called CD64; not shown: His tag
T2 sequence (P12314 16-292 limits assumed): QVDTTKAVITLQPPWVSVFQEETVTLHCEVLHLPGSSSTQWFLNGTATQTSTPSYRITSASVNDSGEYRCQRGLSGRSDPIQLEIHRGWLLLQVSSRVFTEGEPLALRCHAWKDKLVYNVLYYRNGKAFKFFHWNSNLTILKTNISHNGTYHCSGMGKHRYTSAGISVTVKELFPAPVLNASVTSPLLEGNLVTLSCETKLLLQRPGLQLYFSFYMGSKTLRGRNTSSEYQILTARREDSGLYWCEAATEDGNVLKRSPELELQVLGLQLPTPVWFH
Protocol: as §1

[3] = biological target: T1, huFcγRIIa-131H (His-tagged, soluble, …); assay: SPR equilibrium binding, His-tagged FcγR captured by anti-His antibody; afucose enriched; equilibrium binding
Protocol: as §1
(§2) To try to assess the affinity of panitumumab and the various enriched glycan species for FcγRs, we measured the biding of panitumumab samples to all three human Fcγ Receptors by surface plasmon resonance (SPR). […] The binding was further assessed for the fucose and afucose enriched panitumumab samples by equilibrium binding (FIGS. 11A-11B). […]

[4] = biological target: T1, huFcγRIIa-131H (His-tagged, soluble, …); assay: SPR equilibrium binding, His-tagged FcγR captured by anti-His antibody; fucose enriched; equilibrium binding
Protocol: as §1, §2

Kd [1]: ~20 µM | binding result [2]: no binding (tested: 10 µM)
B1: Panitumumab (antibody, human IgG2, kappa)
heavy: QVQLQESGPGLVKPSETLSLTCTVSGGSVSSGDYYWTWIRQSPGKGLEWIGHIYYSGNTNYNPSLKSRLTISIDTSKTQFSLKLSSVTAADTAIYYCVRDRVTGAFDIWGQGTMVTVSSASTKGPSVFPLAPCSRSTSESTAALGCLVKDYFPEPVTVSWNSGALTSGVHTFPAVLQSSGLYSLSSVVTVPSSNFGTQTYTCNVDHKPSNTKVDKTVERKCCVECPPCPAPPVAGPSVFLFPPKPKDTLMISRTPEVTCVVVDVSHEDPEVQFNWYVDGVEVHNAKTKPREEQFNSTFRVVSVLTVVHQDWLNGKEYKCKVSNKGLPAPIEKTISKTKGQPREPQVYTLPPSREEMTKNQVSLTCLVKGFYPSDIAVEWESNGQPENNYKTTPPMLDSDGSFFLYSKLTVDKSRWQQGNVFSCSVMHEALHNHYTQKSLSLSPGK
light: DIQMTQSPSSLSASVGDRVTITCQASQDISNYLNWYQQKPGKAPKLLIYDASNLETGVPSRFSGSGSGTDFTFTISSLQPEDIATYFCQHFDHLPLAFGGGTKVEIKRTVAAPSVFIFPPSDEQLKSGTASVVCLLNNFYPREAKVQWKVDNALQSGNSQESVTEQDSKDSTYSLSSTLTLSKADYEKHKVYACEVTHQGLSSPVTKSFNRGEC
modifications: N-linked glycan at N-297 (Kabat EU numbering; residue 295 of SEQ ID NO:1)
notes: Human IgG2 anti-EGFR monoclonal antibody produced in CHO cells at Amgen; unfractionated glycan profile; also called Vectibix; IgG2 (Panitumumab)

Kd [3]: ~8 µM
B2: afucose enriched panitumumab (antibody, human IgG2, kappa)
heavy: QVQLQESGPGLVKPSETLSLTCTVSGGSVSSGDYYWTWIRQSPGKGLEWIGHIYYSGNTNYNPSLKSRLTISIDTSKTQFSLKLSSVTAADTAIYYCVRDRVTGAFDIWGQGTMVTVSSASTKGPSVFPLAPCSRSTSESTAALGCLVKDYFPEPVTVSWNSGALTSGVHTFPAVLQSSGLYSLSSVVTVPSSNFGTQTYTCNVDHKPSNTKVDKTVERKCCVECPPCPAPPVAGPSVFLFPPKPKDTLMISRTPEVTCVVVDVSHEDPEVQFNWYVDGVEVHNAKTKPREEQFNSTFRVVSVLTVVHQDWLNGKEYKCKVSNKGLPAPIEKTISKTKGQPREPQVYTLPPSREEMTKNQVSLTCLVKGFYPSDIAVEWESNGQPENNYKTTPPMLDSDGSFFLYSKLTVDKSRWQQGNVFSCSVMHEALHNHYTQKSLSLSPGK
light: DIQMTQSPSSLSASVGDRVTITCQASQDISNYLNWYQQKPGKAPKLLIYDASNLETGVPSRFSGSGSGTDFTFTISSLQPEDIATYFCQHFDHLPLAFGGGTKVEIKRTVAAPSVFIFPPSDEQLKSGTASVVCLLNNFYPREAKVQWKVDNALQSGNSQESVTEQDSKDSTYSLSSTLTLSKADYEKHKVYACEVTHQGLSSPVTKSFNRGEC
modifications: N-297 glycan (residue 295 of SEQ ID NO:1) enriched for afucosylated species (Endo-H treatment, eluate of FcγIIIa affinity column; terminal galactose removed with β-(1-4)-galactosidase)
notes: also called afucosylated panitumumab; afucose enriched (eluate) mAb

Kd [4]: ~7.9 µM
B3: fucose enriched panitumumab (antibody, human IgG2, kappa)
heavy: QVQLQESGPGLVKPSETLSLTCTVSGGSVSSGDYYWTWIRQSPGKGLEWIGHIYYSGNTNYNPSLKSRLTISIDTSKTQFSLKLSSVTAADTAIYYCVRDRVTGAFDIWGQGTMVTVSSASTKGPSVFPLAPCSRSTSESTAALGCLVKDYFPEPVTVSWNSGALTSGVHTFPAVLQSSGLYSLSSVVTVPSSNFGTQTYTCNVDHKPSNTKVDKTVERKCCVECPPCPAPPVAGPSVFLFPPKPKDTLMISRTPEVTCVVVDVSHEDPEVQFNWYVDGVEVHNAKTKPREEQFNSTFRVVSVLTVVHQDWLNGKEYKCKVSNKGLPAPIEKTISKTKGQPREPQVYTLPPSREEMTKNQVSLTCLVKGFYPSDIAVEWESNGQPENNYKTTPPMLDSDGSFFLYSKLTVDKSRWQQGNVFSCSVMHEALHNHYTQKSLSLSPGK
light: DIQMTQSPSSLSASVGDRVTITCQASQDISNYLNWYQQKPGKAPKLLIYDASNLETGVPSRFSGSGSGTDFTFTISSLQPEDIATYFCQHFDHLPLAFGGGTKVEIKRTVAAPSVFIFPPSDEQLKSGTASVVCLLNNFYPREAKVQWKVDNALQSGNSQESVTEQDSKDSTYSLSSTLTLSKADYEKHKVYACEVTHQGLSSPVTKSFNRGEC
modifications: N-297 glycan (residue 295 of SEQ ID NO:1) enriched for fucosylated species (flow-through of FcγIIIa affinity column; terminal galactose removed with β-(1-4)-galactosidase)
notes: also called fucosylated panitumumab; afucose-depleted (flow-through) mAb
